Reference: PMC10232555, “Molecular structure of soluble vimentin tetramers” (Scientific Reports, 2023)
Values joined by “and” are separate entries in the source; they are usually repeats but may differ in a detail not shown here. Equal values may be shown once.

Assays:
[1] = target: the molecule itself; test: SEC-MALS; Superdex 200 Increase 10/300 GL, HS buffer (10 mM HEPES, 150 mM NaCl, pH 7.5) after salt jump and 1 h at 37 °C; injected 0.79 mg/mL rod, 0.55 mg/mL ΔNrod, 1.52 mg/mL coil1B
[2] = target: the molecule itself; test: cross-linking; truncated fragments 0.4 mg/mL in HS conditions (10 mM HEPES, 150 mM NaCl, pH 7.5); DSG and DSBU; reducing SDS-PAGE

B1: vimentin ΔNrod (coil1B and coil2, residues 150-404) (domain or fragment)
chain: not shown
notes: vimentin, human, coil1B and coil2 domains, residues 150-404; theoretical monomer mass printed as 30.2 kDa; source: denatured in 8 M urea and re-natured by step-wise dialysis before analysis
- stoichiometry N [1]: 2 and 4
- stoichiometry N [2]: 2

B2: vimentin coil1B construct (residues 150-249) (domain or fragment)
chain: not shown
notes: vimentin, human, coil1B, residues 150-249; theoretical monomer mass printed as 12.1 kDa; also called coil1B fragment; source: denatured in 8 M urea and re-natured by step-wise dialysis before analysis
- stoichiometry N [1]: 2
- stoichiometry N [2]: 2

B3: vimentin rod domain (residues 93-404) (domain or fragment)
chain: not shown
notes: vimentin, human, rod domain, residues 93-404; theoretical monomer mass printed as 36.9 kDa; also called rod fragment; rod construct; source: denatured in 8 M urea and re-natured by step-wise dialysis before analysis
- stoichiometry N [1]: 4
- stoichiometry N [2]: 4
